Measured values reported in US20230250415.

Legend:
[1] = system: alpha2-TALEN-L (Platinum TALEN, TRAC exon 1); test: cell_activity; conditions: half-site not delineated
[2] = system: alpha2-TALEN-R (Platinum TALEN, TRAC exon 1); test: cell_activity; conditions: half-site not delineated
[3] = 1G4 knock-in efficiency in beta-null Jurkat with alpha2-TALEN pair and modified PITCh vector
[4] = 1G4 knock-in efficiency in beta-null Jurkat with alpha2-TALEN pair and conventional PITCh vector

Sequence | activity [1, 3] [%] | activity [2, 3] [%] | activity [1, 4] [%] | activity [2, 4] [%]
GTCTGCCTATTCACCGATTGAAGATTTTGATTCAATGTGTCACAAAGTAAGGA (double strand) | 3.5 | 3.5 |  | 
GTCTGCCTATTCACCGATTGAAGATTTTGATTCAATGTGTCACAAAGTAAGGATTC (double strand) |  |  | 3.1 | 3.1
